PMC11519345, “Structural variation of types IV-A1- and IV-A3-mediated CRISPR interference”
Each block holds one molecule with its values, some of them ahead of it.

How the values were obtained:
[1] = molecular target: Type IV-A3 effector complex (Cas5-Cas8-Cas7-Cas6 crRNP), DinG-free (Klebsiella pneumoniae) (UniProt A0A8G1XN67+A0A7Z7WW72+A0A333ESG5); experiment: EMSA; settings: crRNA; EMSA: 10 mM HEPES pH 7.5, 150 mM NaCl, 1 nM DNA, on ice then 20 min RT, 6% native PAGE in TBE at 4 C; cryo-EM: 10 uM complex + 15 uM DNA in the same buffer …; scale: fold tighter than type IV-A1 complex on its target
[2] = molecular target: type IV-A1 Cas7 (Csf2) from Pseudomonas oleovorans (Pseudomonas oleovorans); experiment: cryo-EM structure; type IV-A1 effector complex (10 µM) reconstituted with bubbled target dsDNA (15 µM) in 10 mM HEPES-Na pH 7.5, 150 mM NaCl, then SEC; particle class without DinG
[3] = molecular target: type IV-A3 Cas7 (Csf2) from Klebsiella pneumoniae (Klebsiella pneumoniae); experiment: cryo-EM structure; type IV-A3 effector complex (10 µM) reconstituted with bubbled target dsDNA (15 µM) in 10 mM HEPES-Na pH 7.5, 150 mM NaCl, then SEC; without DinG
[4] = molecular target: T1, Type IV-A1 effector complex (Cas5-Cas8-Cas7-Cas6 crRNP), DinG-free (Pseudomonas oleovorans, UniProt A0A379PL53;A0A379PIR4;A0A379PIR9;A0A379PNK2 1-222;1-240;1-347;1-236); experiment: cryo-EM; crRNA; no DinG; 3.0 A; PDB code not assigned in the material (8RC2/8RC3/8RFJ); EMSA: 10 mM HEPES pH 7.5, 150 mM NaCl, 1 nM DNA, on ice then 20 min RT, 6% native PAGE in TBE at 4 C; cryo-EM: 10 uM complex + 15 uM DNA in the same buffer, 10; settings: protein: recombinant; tags: His6 C-terminal on Cas8; copies: 1;1;5;1; bubble: non-complementary protospacer, paired 15 nt and 14+ nt ends
T1 sequence 1: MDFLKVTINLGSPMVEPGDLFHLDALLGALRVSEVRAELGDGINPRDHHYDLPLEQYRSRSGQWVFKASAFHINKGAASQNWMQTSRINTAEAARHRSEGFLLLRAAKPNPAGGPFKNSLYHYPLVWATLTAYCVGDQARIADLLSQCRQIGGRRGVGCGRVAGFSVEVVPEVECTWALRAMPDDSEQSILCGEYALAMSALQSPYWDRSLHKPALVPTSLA
T1 sequence 2: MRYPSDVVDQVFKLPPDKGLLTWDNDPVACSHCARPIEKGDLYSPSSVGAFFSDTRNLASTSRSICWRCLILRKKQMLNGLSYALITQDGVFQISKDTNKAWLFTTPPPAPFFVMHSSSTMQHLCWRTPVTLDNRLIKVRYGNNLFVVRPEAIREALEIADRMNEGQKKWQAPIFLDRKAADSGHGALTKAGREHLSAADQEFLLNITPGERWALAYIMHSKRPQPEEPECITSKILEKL
T1 sequence 3: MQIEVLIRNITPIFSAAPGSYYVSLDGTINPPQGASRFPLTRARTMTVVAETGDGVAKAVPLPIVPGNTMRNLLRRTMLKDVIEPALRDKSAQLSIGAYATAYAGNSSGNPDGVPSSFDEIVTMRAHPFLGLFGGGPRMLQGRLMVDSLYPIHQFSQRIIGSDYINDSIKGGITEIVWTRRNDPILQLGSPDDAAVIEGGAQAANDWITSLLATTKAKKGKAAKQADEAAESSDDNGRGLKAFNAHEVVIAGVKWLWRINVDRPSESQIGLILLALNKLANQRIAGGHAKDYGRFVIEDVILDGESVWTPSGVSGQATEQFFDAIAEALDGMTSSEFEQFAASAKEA
T1 sequence 4: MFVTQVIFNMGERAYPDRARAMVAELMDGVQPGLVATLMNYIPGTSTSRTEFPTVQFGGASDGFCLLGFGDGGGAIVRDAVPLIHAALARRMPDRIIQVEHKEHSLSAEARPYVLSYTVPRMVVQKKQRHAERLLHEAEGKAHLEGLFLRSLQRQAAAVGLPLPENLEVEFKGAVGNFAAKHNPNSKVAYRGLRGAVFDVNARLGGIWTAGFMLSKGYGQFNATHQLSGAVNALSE

Molecule: IV-A3 EMSA target, no mismatch
- binding signal [1]: 10

- stoichiometry N [2]: 5
Molecule: type IV-A1 Cas7 (Csf2) from Pseudomonas oleovorans (natural protein)

- stoichiometry N [3]: 6
Molecule: type IV-A3 Cas7 (Csf2) from Klebsiella pneumoniae (natural protein)

B1: Type IV-A1 bubbled target DNA (TS/NTS) for cryo-EM (dsDNA)
DNA 1: CGGTCGGGTCATACGTCGCGTCTCGAATCTGATGCGTAACTTGGATGCTTCGTGCGTGATG
DNA 2: CATCACGCACGAAGACCAAGTCAATGCTTAGTCTAATACCTGCGCTCGTATGACCCGACCG
- binding result [4]: binds
